The target in the assay is T1, mouse asialoglycoprotein receptor 1 (ASGR1), FLAG tagged, expressed on CHO-S cells (mouse, UniProt P34927 1-284).
T1 sequence (looked up): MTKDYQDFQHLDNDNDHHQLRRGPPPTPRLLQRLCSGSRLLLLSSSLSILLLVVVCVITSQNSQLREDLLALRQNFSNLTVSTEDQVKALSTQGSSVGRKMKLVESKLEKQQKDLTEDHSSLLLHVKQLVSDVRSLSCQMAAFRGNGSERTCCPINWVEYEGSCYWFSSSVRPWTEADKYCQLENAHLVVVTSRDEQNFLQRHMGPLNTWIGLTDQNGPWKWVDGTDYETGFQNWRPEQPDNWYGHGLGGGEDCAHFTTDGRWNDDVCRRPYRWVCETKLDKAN
Put plainly: flow cytometry on cells.

A word on the EC50: it is the concentration that produces a half-maximal response. A higher EC50 goes with a less potent agent.

B1: asialofetuin (ligand)
chain: IPLDPVAGYKEPACDDPDTEQAALAAVDYINKHLPRGYKHTLNQIDSVKVWPRRPTGEVYDIEIDTLETTCHVLDPTPLANCSVRQQTQHAVEGDCDIHVLKQDGQFSVLFTKCDSSPDSAEDVRKLCPDCPLLAPLNDSRVVHAVEVALATFNAESNGSYLQLVEISRAQFVPLPVSVSVEFAVAATDCIAKEVVDPTKCNLLAEKQYGFCKGSVIQKALGGEDVRVTCTLFQTQPVIPQPQPDGAEAEAPSAVPDAAGPTPSAAGPPVASVVVGPSVVAVPLPLHRAHYDLRHTFSGVASVESSSGEAFHVGKTPIVGQPSIPGGPVRLCPGRIRYFKI
modifications: biotinylated (site not stated); desialylated with neuraminidase
As to B1, the EC50 was determined as 53 nM.

The values are drawn from paper PMC11275528 (mAbs, 2024).
